# T1: human FLT3 (FMS-like tyrosine kinase 3) (human, UniProt P36888 27-993)
# T1 sequence (looked up): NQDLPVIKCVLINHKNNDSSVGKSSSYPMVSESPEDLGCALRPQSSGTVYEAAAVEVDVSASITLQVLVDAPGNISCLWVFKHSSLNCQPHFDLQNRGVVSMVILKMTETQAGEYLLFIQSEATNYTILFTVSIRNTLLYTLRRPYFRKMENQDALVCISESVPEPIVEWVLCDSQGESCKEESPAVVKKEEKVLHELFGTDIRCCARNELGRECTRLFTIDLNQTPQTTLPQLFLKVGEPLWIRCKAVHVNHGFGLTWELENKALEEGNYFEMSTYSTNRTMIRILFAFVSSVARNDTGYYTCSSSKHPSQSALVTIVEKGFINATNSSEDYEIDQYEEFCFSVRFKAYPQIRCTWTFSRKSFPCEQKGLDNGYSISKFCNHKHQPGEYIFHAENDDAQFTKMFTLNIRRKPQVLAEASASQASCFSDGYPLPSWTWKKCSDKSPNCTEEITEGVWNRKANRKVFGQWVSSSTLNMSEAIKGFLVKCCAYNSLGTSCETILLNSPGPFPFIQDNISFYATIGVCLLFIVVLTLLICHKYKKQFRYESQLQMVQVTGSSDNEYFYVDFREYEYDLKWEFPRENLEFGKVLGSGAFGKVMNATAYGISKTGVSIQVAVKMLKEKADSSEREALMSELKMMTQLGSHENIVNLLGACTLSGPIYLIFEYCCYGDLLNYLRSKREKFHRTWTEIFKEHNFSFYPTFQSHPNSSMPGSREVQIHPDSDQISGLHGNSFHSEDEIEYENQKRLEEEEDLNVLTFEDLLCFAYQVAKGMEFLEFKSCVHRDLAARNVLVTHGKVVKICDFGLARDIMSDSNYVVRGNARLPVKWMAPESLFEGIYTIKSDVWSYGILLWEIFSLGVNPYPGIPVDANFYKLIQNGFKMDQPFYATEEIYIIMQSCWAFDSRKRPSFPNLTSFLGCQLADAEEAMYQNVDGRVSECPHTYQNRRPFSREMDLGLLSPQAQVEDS
# Target: T1, human FLT3 (FMS-like tyrosine kinase 3)
# Assay: cell-based or functional assay
row,Binder,"Single dose STAT5-Luc assay, activity relative to NB1016 (chimeric), antibody at 1 nM [%]"
1,"Humanized VH5 x Humanized VL4 (antibody, V domains shown) VH: EVQLVESGGVVVQPGGSLRLSCAPSGFTFSNYGMAWVRQAPGKGLEWVSSIHSGGGDTYYADSVKGRFTISRDNSKNSLYLQMNSLRTEDTALYYCARGRTPTGYYFDHWGQGTMVTVSS VL: DIQMTQSPSSLSASVGDRVTITCRASEGIHNGLAWYQQKPGKAPKRLIYNANSLHSRVPSRFSGSGSGTEFTLTISSLQPEDFATYYCQQYYDYPLTFGQGTKLEIK",77
2,"Humanized VH4 x Humanized VL2 (antibody, V domains shown) VH: QVQLVESGGGVVQPGRSLRLSCAASGFTFSNYGMAWVRQAPGKGLEWVASIHSGGGDTYYRDSVKGRFTISRDNSKNTLYLQMNSLRAEDTATYYCARGRTPTGYYFDHWGQGTMVTVSS VL: AIQMTQSPSSLSASVGDRVTITCRASEGIHNGLAWYQQKPGKAPKLLIYNANSLHSGVPSRFSGSGSGTDFTLTISSLQPEDFATYYCQQYYDYPLTFGQGTKLEIK",90
3,"Humanized VH3 x Humanized VL2 (antibody, V domains shown) VH: EVQLVESGGGLVQPGGSLRLSCAPSGFTFSNYGMAWVRQAPGKGLVWVSSIHSGGGDTYYRDSVKGRFTISRDNAKNTLYLQMNSLRAEDTAVYYCARGRTPTGYYFDHWGQGTMVTVSS VL: AIQMTQSPSSLSASVGDRVTITCRASEGIHNGLAWYQQKPGKAPKLLIYNANSLHSGVPSRFSGSGSGTDFTLTISSLQPEDFATYYCQQYYDYPLTFGQGTKLEIK",81
4,"Humanized VH5 x Humanized VL5 (antibody, V domains shown) VH: EVQLVESGGVVVQPGGSLRLSCAPSGFTFSNYGMAWVRQAPGKGLEWVSSIHSGGGDTYYADSVKGRFTISRDNSKNSLYLQMNSLRTEDTALYYCARGRTPTGYYFDHWGQGTMVTVSS VL: EIVMTQSPATLSVSPGERATLSCRASEGIHNGLAWYQQKPGQAPRLLIYNANSLHSGIPARFSGSGSGTEFTLTISSLQSEDFAVYFCQQYYDYPLTFGQGTKLEIK",75
5,"Humanized VH1 x Humanized VL4 (antibody, V domains shown) VH: EVQLLESGGGLVQPGGSLRLSCAPSGFTFSNYGMAWVRQAPGKGLEWVSSIHSGGGDTYYRDSVKGRFTISRDNSKNTLYLQMNSLRAEDTAVYYCARGRTPTGYYFDHWGQGTMVTVSS VL: DIQMTQSPSSLSASVGDRVTITCRASEGIHNGLAWYQQKPGKAPKRLIYNANSLHSRVPSRFSGSGSGTEFTLTISSLQPEDFATYYCQQYYDYPLTFGQGTKLEIK",91
6,"Humanized VH1 x Humanized VL2 (antibody, V domains shown) VH: EVQLLESGGGLVQPGGSLRLSCAPSGFTFSNYGMAWVRQAPGKGLEWVSSIHSGGGDTYYRDSVKGRFTISRDNSKNTLYLQMNSLRAEDTAVYYCARGRTPTGYYFDHWGQGTMVTVSS VL: AIQMTQSPSSLSASVGDRVTITCRASEGIHNGLAWYQQKPGKAPKLLIYNANSLHSGVPSRFSGSGSGTDFTLTISSLQPEDFATYYCQQYYDYPLTFGQGTKLEIK",72
7,"Humanized VH5 x Humanized VL1 (antibody, V domains shown) VH: EVQLVESGGVVVQPGGSLRLSCAPSGFTFSNYGMAWVRQAPGKGLEWVSSIHSGGGDTYYADSVKGRFTISRDNSKNSLYLQMNSLRTEDTALYYCARGRTPTGYYFDHWGQGTMVTVSS VL: DIQMTQSPSSLSASVGDRVTITCRASEGIHNGLAWYQQKPGKVPKLLIYNANSLHSGVPSRFSGSGSGTDFTLTISSLQPEDVATYFCQQYYDYPLTFGQGTKLEIK",83

# Target: T1, human FLT3 (FMS-like tyrosine kinase 3)
# Assay: cell-based or functional assay
# Remark: another data set of the same source
row,Binder,EC50 in AML5 proliferation assay [nM]
1,"Humanized VH3 x Humanized VL3 (antibody, V domains shown) VH: EVQLVESGGGLVQPGGSLRLSCAPSGFTFSNYGMAWVRQAPGKGLVWVSSIHSGGGDTYYRDSVKGRFTISRDNAKNTLYLQMNSLRAEDTAVYYCARGRTPTGYYFDHWGQGTMVTVSS VL: AIQLTQSPSSLSASVGDRVTITCRASEGIHNGLAWYQQKPGKAPKLLIYNANSLHSRVPSRFSGSGSGTDFTLTISSLQPEDFATYFCQQYYDYPLTFGQGTKLEIK",0.051
2,"Humanized VH3 x Humanized VL1 (antibody, V domains shown) VH: EVQLVESGGGLVQPGGSLRLSCAPSGFTFSNYGMAWVRQAPGKGLVWVSSIHSGGGDTYYRDSVKGRFTISRDNAKNTLYLQMNSLRAEDTAVYYCARGRTPTGYYFDHWGQGTMVTVSS VL: DIQMTQSPSSLSASVGDRVTITCRASEGIHNGLAWYQQKPGKVPKLLIYNANSLHSGVPSRFSGSGSGTDFTLTISSLQPEDVATYFCQQYYDYPLTFGQGTKLEIK",0.076
3,"Humanized VH4 x Humanized VL1 (antibody, V domains shown) VH: QVQLVESGGGVVQPGRSLRLSCAASGFTFSNYGMAWVRQAPGKGLEWVASIHSGGGDTYYRDSVKGRFTISRDNSKNTLYLQMNSLRAEDTATYYCARGRTPTGYYFDHWGQGTMVTVSS VL: DIQMTQSPSSLSASVGDRVTITCRASEGIHNGLAWYQQKPGKVPKLLIYNANSLHSGVPSRFSGSGSGTDFTLTISSLQPEDVATYFCQQYYDYPLTFGQGTKLEIK",0.082
4,"Humanized VH4 x Humanized VL3 (antibody, V domains shown) VH: QVQLVESGGGVVQPGRSLRLSCAASGFTFSNYGMAWVRQAPGKGLEWVASIHSGGGDTYYRDSVKGRFTISRDNSKNTLYLQMNSLRAEDTATYYCARGRTPTGYYFDHWGQGTMVTVSS VL: AIQLTQSPSSLSASVGDRVTITCRASEGIHNGLAWYQQKPGKAPKLLIYNANSLHSRVPSRFSGSGSGTDFTLTISSLQPEDFATYFCQQYYDYPLTFGQGTKLEIK",0.091
5,"Humanized VH3 x Humanized VL5 (antibody, V domains shown) VH: EVQLVESGGGLVQPGGSLRLSCAPSGFTFSNYGMAWVRQAPGKGLVWVSSIHSGGGDTYYRDSVKGRFTISRDNAKNTLYLQMNSLRAEDTAVYYCARGRTPTGYYFDHWGQGTMVTVSS VL: EIVMTQSPATLSVSPGERATLSCRASEGIHNGLAWYQQKPGQAPRLLIYNANSLHSGIPARFSGSGSGTEFTLTISSLQSEDFAVYFCQQYYDYPLTFGQGTKLEIK",0.07
6,"Humanized VH2 x Humanized VL1 (antibody, V domains shown) VH: EVQLVESGGGLVQPGGSLRLSCAASGFTFSNYGMAWVRQAPGKGLEWVASIHSGGGDTYYRDSVKGRFTISRDNAKNSLYLQMNSLRAEDTAVYYCARGRTPTGYYFDHWGQGTMVTVSS VL: DIQMTQSPSSLSASVGDRVTITCRASEGIHNGLAWYQQKPGKVPKLLIYNANSLHSGVPSRFSGSGSGTDFTLTISSLQPEDVATYFCQQYYDYPLTFGQGTKLEIK",0.08
7,"Humanized VH1 x Humanized VL3 (antibody, V domains shown) VH: EVQLLESGGGLVQPGGSLRLSCAPSGFTFSNYGMAWVRQAPGKGLEWVSSIHSGGGDTYYRDSVKGRFTISRDNSKNTLYLQMNSLRAEDTAVYYCARGRTPTGYYFDHWGQGTMVTVSS VL: AIQLTQSPSSLSASVGDRVTITCRASEGIHNGLAWYQQKPGKAPKLLIYNANSLHSRVPSRFSGSGSGTDFTLTISSLQPEDFATYFCQQYYDYPLTFGQGTKLEIK",0.105
8,"Humanized VH2 x Humanized VL3 (antibody, V domains shown) VH: EVQLVESGGGLVQPGGSLRLSCAASGFTFSNYGMAWVRQAPGKGLEWVASIHSGGGDTYYRDSVKGRFTISRDNAKNSLYLQMNSLRAEDTAVYYCARGRTPTGYYFDHWGQGTMVTVSS VL: AIQLTQSPSSLSASVGDRVTITCRASEGIHNGLAWYQQKPGKAPKLLIYNANSLHSRVPSRFSGSGSGTDFTLTISSLQPEDFATYFCQQYYDYPLTFGQGTKLEIK",0.091
9,"Humanized VH4 x Humanized VL5 (antibody, V domains shown) VH: QVQLVESGGGVVQPGRSLRLSCAASGFTFSNYGMAWVRQAPGKGLEWVASIHSGGGDTYYRDSVKGRFTISRDNSKNTLYLQMNSLRAEDTATYYCARGRTPTGYYFDHWGQGTMVTVSS VL: EIVMTQSPATLSVSPGERATLSCRASEGIHNGLAWYQQKPGQAPRLLIYNANSLHSGIPARFSGSGSGTEFTLTISSLQSEDFAVYFCQQYYDYPLTFGQGTKLEIK",0.098
10,"Humanized VH4 x Humanized VL4 (antibody, V domains shown) VH: QVQLVESGGGVVQPGRSLRLSCAASGFTFSNYGMAWVRQAPGKGLEWVASIHSGGGDTYYRDSVKGRFTISRDNSKNTLYLQMNSLRAEDTATYYCARGRTPTGYYFDHWGQGTMVTVSS VL: DIQMTQSPSSLSASVGDRVTITCRASEGIHNGLAWYQQKPGKAPKRLIYNANSLHSRVPSRFSGSGSGTEFTLTISSLQPEDFATYYCQQYYDYPLTFGQGTKLEIK",0.095
11,"Humanized VH1 x Humanized VL5 (antibody, V domains shown) VH: EVQLLESGGGLVQPGGSLRLSCAPSGFTFSNYGMAWVRQAPGKGLEWVSSIHSGGGDTYYRDSVKGRFTISRDNSKNTLYLQMNSLRAEDTAVYYCARGRTPTGYYFDHWGQGTMVTVSS VL: EIVMTQSPATLSVSPGERATLSCRASEGIHNGLAWYQQKPGQAPRLLIYNANSLHSGIPARFSGSGSGTEFTLTISSLQSEDFAVYFCQQYYDYPLTFGQGTKLEIK",0.097
